Key:
[1] = molecular target: human V158 FcγRIIIa extracellular region fused with GST (human) (UniProt P08637); experiment: AlphaScreen competition
[2] = molecular target: FcγRIIIa on human PBMCs, homozygous F158/F158 (human) (UniProt P08637); experiment: cell-based or functional assay
[3] = molecular target: FcγRIIIa on human PBMCs, heterozygous V158/F158 (human) (UniProt P08637); experiment: cell-based or functional assay
[4] = molecular target: F158 FcγRIIIa used in SPR (human) (UniProt P08637); experiment: SPR
[5] = molecular target: His-tagged V158 FcγRIIIa (human) (UniProt P08637); experiment: SPR, His-tagged receptor immobilized, antibody flowed

Substance	Fold vs WT [1] [fold]	ADCC EC50 (DoHH-2 target cells, human PBMCs) [3] [ng/mL]	further results
wild-type rituximab (antibody)			ADCC EC50 (WIL2-S target cells, human PBMCs) [2]: 1.7 ng/mL
alemtuzumab S239D/I332E (antibody)		3	
wild-type alemtuzumab (antibody)		9.9	Kd [4]: 0.73 µM; Kd [5]: 0.068 µM
alemtuzumab V264I/I332E (antibody)		4	

Further lines, with some results ahead:

Fold vs WT [1] [fold]	ADCC EC50 (DoHH-2 target cells, human PBMCs) [3] [ng/mL]	Substance	further results
0.27		alemtuzumab A298H (antibody)	
0.05		alemtuzumab V264I/N297D/I332E (antibody)	
